Results on ten molecules are retold here after publication PMC9942873 (Immunity, 2023).

Targets include Pfs48/45 D3 (Plasmodium falciparum 3D7, UniProt Q8I6T1); Pfs48/45 D2-3 (Plasmodium falciparum 3D7, UniProt Q8I6T1); Pfs48/45 D1-2 (Plasmodium falciparum 3D7, UniProt Q8I6T1); Pfs48/45 D1-2 (N28-K289) (Plasmodium falciparum 3D7, UniProt Q8I6T1); Pfs48/45 D3 (K287-A428) (Plasmodium falciparum 3D7, UniProt Q8I6T1).
Holding throughout (test): ELISA
What all share (settings): both partners purified

The target of assay [1] is recombinant full-length Pfs48/45 (Plasmodium falciparum 3D7, UniProt Q8I6T1).
Assay [2] deals with Pfs48/45 D2-3 (H184-A428) (Plasmodium falciparum 3D7, UniProt Q8I6T1).

Changes are numbered by the printed parent chain.

Pfs48/45 D3 (K287-A428), sequence (Q8I6T1 whole entry, looked up): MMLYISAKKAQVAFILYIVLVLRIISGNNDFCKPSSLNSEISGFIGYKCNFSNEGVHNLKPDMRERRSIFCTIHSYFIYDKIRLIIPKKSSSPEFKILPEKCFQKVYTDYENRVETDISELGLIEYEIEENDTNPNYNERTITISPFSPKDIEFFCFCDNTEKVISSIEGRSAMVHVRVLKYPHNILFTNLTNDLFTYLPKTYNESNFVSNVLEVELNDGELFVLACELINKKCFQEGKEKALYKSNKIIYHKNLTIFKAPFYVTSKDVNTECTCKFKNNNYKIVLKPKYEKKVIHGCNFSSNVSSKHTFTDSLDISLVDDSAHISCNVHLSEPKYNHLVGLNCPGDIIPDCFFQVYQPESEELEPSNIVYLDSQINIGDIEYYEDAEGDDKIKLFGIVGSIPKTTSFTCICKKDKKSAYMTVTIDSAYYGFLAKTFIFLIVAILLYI
Pfs48/45 D1-2 (N28-K289), sequence (Q8I6T1 whole entry, looked up): as above
Pfs48/45 D2-3 (H184-A428), sequence (Q8I6T1 whole entry, looked up): as above
Pfs48/45 D1-2, sequence (Q8I6T1 28-289): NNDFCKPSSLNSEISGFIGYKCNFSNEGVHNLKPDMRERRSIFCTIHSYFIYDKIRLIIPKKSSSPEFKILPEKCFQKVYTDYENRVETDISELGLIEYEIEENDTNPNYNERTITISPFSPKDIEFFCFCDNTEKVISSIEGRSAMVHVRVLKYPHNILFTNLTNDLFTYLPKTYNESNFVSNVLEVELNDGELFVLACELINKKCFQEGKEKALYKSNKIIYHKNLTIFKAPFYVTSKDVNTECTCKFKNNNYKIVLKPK
Pfs48/45 D2-3, sequence (Q8I6T1 184-428): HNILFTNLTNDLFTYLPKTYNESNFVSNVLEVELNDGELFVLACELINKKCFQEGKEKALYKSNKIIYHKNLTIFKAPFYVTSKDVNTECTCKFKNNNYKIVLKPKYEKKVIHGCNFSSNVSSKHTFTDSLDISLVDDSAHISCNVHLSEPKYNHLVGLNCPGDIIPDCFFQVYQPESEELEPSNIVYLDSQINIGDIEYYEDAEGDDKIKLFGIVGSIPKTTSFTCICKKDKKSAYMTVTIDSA
Pfs48/45 D3, sequence (Q8I6T1 287-428): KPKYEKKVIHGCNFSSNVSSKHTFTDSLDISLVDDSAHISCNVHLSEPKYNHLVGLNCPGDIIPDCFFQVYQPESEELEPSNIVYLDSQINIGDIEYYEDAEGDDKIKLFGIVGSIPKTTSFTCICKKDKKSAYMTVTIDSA
recombinant full-length Pfs48/45, sequence (Q8I6T1 28-428): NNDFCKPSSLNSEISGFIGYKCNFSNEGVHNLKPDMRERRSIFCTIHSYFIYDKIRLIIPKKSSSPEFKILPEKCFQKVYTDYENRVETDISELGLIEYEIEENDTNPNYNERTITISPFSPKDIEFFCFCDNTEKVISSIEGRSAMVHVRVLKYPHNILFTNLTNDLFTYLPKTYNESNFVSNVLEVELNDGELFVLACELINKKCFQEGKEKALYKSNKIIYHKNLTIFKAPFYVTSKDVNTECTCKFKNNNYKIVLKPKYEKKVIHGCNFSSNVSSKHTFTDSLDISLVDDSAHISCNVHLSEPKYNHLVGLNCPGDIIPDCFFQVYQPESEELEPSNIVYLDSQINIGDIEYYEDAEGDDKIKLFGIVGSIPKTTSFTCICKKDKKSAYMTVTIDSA

B1: RUPA-154 (antibody, V domains shown)
VH: QVQLVQSGAEVRKPGASVKVSCRTSGYTFTDYYMHWVRQAPGEGLEWMGSINPKSGGTSYAERFQGRVTMTMETSVSTAYLDLSSLRSDDTAVYYCARLLYSRAVYYYGMDVWGQGTTVTVSS
VL: SYELTQPPSVSVAPGKTARITCGGKDLGSKSVHWYQQKPGQAPVLVIYYDNIRPSGIPERFSGSNSGNTATLTISRVEAGDEADYYCQVWDSSSDHYVFGRGAKVTVL
notes: human IgG1; source: recombinant human IgG1, 293T (Protein A purified) or GenScript
For the molecule B1, the binding result (in the assay with Pfs48/45 D3; in assay [1]; in the assay with Pfs48/45 D2-3; with Pfs48/45 D1-2) was “binds” in each case.

B2: RUPA-154 (hIgG1) (antibody, V domains shown)
VH: B1 VH
VL: B1 VL
notes: IgG1; source: 293T cells, purified (Protein A), or produced as recombinant human IgG1 (GenScript)
As for B2, the binding result (in assay [2]; in the assay with Pfs48/45 D1-2 (N28-K289); in the assay with Pfs48/45 D3 (K287-A428)) was “binds” in each case.

B3: RUPA-50 (hIgG1) (antibody, V domains shown)
VH: QVHLVESGGGVVQPGRSLRLSCAASGFTFRSYGMHWVRRVPGKGLEWVATISYDETFKDYPDSVKGRFTISRDNSKNTLFLQMNSLRPADTAVYYCAKDRAHSMHYFEYWGRGTLVTVSS
VL: SYELTQPPSVSVSPGQTARLTCSGDALPKKFAYWYQLKSGQAPVLVIYEDSKRPSGIPERFSGSSSGTTATLTISGAQVEDEADYYCYSRDGSGDQKNIFGGGTKLTVL
notes: as for B2
With B3, the binding result with Pfs48/45 D3 (K287-A428) was “binds”.

B4: RUPA-54 (hIgG1) (antibody, V domains shown)
VH: QVQLVESGGGVVQPGRSLRLSCTASGFTFRSYGIHWVRQAPGKGLQWVAFISYDGRNKYYADSVKGRFTISRDNSKNTLYLQMSGLRADDTAVYYCAKDSDNDCTATSCYTVSWGQGTLVTVSS
VL: SYELTQPPSVSVSPGQTARITCSGDALPKKYAYWYQQKSGQAPVLVIYEDKKRPSGIPERFSGSSSGTMATLTISGAQVEDEADYYCYSTDSRTDHGGIFGGGTKLTVL
notes: as for B2
Turning to B4, the binding result with Pfs48/45 D3 (K287-A428) is “binds”.

B5: RUPA-100 (hIgG1) (antibody, V domains shown)
VH: QVQLVESGGGVVQPGRSLRLSCAASGFSFSHYGMHWVRQAPGKGLEWVAVISYDGNYKYYGDSVKGRFTISRDNFKNTLYLQMNSLRPEDTAVYYCAKGKAHSCVSTSCYTDFWGQGTLVTVPS
VL: B4 VL with K51S, A83G, R93S, T94Y, D95N, G97R, I99V
notes: as for B2
For the molecule B5, the binding result in the assay with Pfs48/45 D3 (K287-A428) is given as “binds”.

B6: RUPA-25 (hIgG1) (antibody, V domains shown)
VH: QVQLVQSGAEVKKPGASVKVSCTASGYNFLTHDISWVRQATGQGLEWMGWMNPNTGKKGYVQKFQGRVTMDRDMSKSTAYMELRSLTSEDTAVYYCVRGVGSYYGSGGWFDPWGQGTLVTVSS
VL: QPVLTQPPSASETPGQKVTISCSGSSSNIGSDTVSWYVQLPGTAPKLLIYNDNQRPSGVPDRFSGSKSGTSASLAISGLQSEDEADYYCATWDASLKRRVFGGGTTLTVL
notes: as for B2
Consider B6, for which the binding result (in assay [2]; with Pfs48/45 D1-2 (N28-K289)) was “binds” in each case.

B7: RUPA-160 (antibody, V domains shown)
VH: QVQLVQSGAEVKKPGASVKASCKASGYTFDNFDIIWARQATGQGLEWMGWMNPNTGKKGYAQNLKDRVTMTRDSSISTAYLELSSLRSEDTAVYYCVRAVGSYYGSGGWFDPWGQGTLVTVSS
VL: QSVLTQPPSASGTPGQRVTIACSGSSSNIGGNNVKWYQQLPGTAPKLVIYNNDERPPGVPDRVSGSKSGTSASLAISGVQSEDEADYYCATWDDSMKREVFGGGTKLTVL
notes: as for B1
Turning to B7, the binding result in the assay with Pfs48/45 D3 is “no binding (tested: 10 ug/ml)”; in assay [1] it was “binds”; with Pfs48/45 D2-3, “binds”; in the assay with Pfs48/45 D1-2 it was “binds”.

B8: RUPA-160 (hIgG1) (antibody, V domains shown)
VH: B7 VH
VL: B7 VL
notes: as for B2
Consider B8, for which the binding result (in assay [2]; in the assay with Pfs48/45 D1-2 (N28-K289)) was “binds” each time.

B9: RUPA-58 (hIgG1) (antibody, V domains shown)
VH: QVQLVQSGPEAKKPGASVKVSCQASGYPFSGYYMHWLRQAPGQGLEWMGWMNPNSGGTKYAQRFQGRVTMTRDTSISTAHMELRGLRSDDTAVYYCARDYCTGSSCYRTDYDYWGQGTLVTVSS
VL: DIQMTQSPSSLSASVGDRVTITCRASQIISTYLNWYQHKPGKAPKLLIKSASTLQSGVPSRFSGSGSGTDFTLTITSLQPEDFATFYCQQSYRDPITFGQGTRLEIK
notes: as for B2
With B9, in the assay with Pfs48/45 D1-2 (N28-K289), the binding result was “binds”.

B10: RUPA-29 (hIgG1) (antibody, V domains shown)
VH: QVHLVESGGGVVQPGRSLRLSCAASGFTFRSYGMHWVRLAPGKGLEWVTAIWYDGSKKHFADSVKGRFTISRDNSKNTLYLQMSSLRVEDTAVYYCARDFAHGAFYPVDWGRGTLVTVSS
VL: SYELTQPPSVSVSPGQTARITCSGDALPKKHAYWYQQKSGQAPVLVIYDDSKRPSGIPERFSGSSSGTMATLSISGAQVEDEAAYYCYSSDTSANYWVFGGGTKLTVL
notes: as for B2
Regarding B10, the binding result with Pfs48/45 D3 (K287-A428) is reported as “binds”.
